# Measured values: US6300088A, “Method of detecting prostate specific antigen” (Duke University, priority 1998, dated 2001)
# No end group written: not given here.
# B1: ^125 I-α1 -ACT: α1-antichymotrypsin, purified as previously described (Salvesen et al.) (protein, UniProt P01011 24-423, looked up)
# Alpha-1-antichymotrypsin: HPNSPLDEENLTQENQDRGTHVDLGLASANVDFAFSLYKQLVLKAPDKNVIFSPLSISTALAFLSLGAHNTTLTEILKGLKFNLTETSEAEIHQSFQHLLRTLNQSSDELQLSMGNAMFVKEQLSLLDRFTEDAKRLYGSEAFATDFQDSAAAKKLINDYVKNGTRGKITDLIKDLDSQTMMVLVNYIFFKAKWEMPFDPQDTHQSRFYLSKKKWVMVPMMSLHHLTIPYFRDEELSCTVVELKYTGNASALFILPDQDKMEEVEAMLLPETLKRWRDSLEFREIGELYLPKFSISRDYNLNDILLQLGIEEAFTSKADLSGITGARNLAVSQVVHKAVLDVFEEGTEASAATAVKITLLSALVETRTIVRFNRPFLMIIVPTDTQNIFFMSKVTNPKQA
# modifications: 125I label
# Assays:
# [1] = mouse, in vivo, iv
# Description: (§1) Plasma Elimination Studies--This procedure has been described in detail elsewhere. […] In brief, approximately 1.0 μg of radioiodinated protein or peptide was injected into the lateral tail vein of CD-1 mice. Blood samples of 25 μl were collected at timed intervals via retroorbital puncture. The initial time point, taken 5-10 seconds after injection, was considered to represent 100% radioactivity in circulation. Each preparation was studied at least in triplicate.
# [2] = Plasma elimination studies in CD-1 mice (radioiodinated protein or peptide injected into the lateral tail vein)
# Description: as §1
# [3] = Tissue distribution of radioactivity in organs after the plasma elimination experiments (γ-counter); type: in vivo; conditions: mouse, after plasma elimination experiment; FIG. 5
# Description: Each preparation was studied at least in triplicate.
# Following the plasma elimination experiments the organs of the test mice were examined for radioactivity using a γ-counter.
molecule,measurement,setting,value
Ala-Pro-Leu-Ile-Leu-Ser-Arg (APLILSR; not fully specified; printed as Ala-Pro-Leu-Ile-Leu-Ser-Arg) [activation peptide],effect of excess unlabelled activation peptide on clearance rate / half-life,[1],not significantly affected
same,plasma elimination half-life of the peptide,[1],less than 2 minutes
^125 I-α1 -ACT.cndot.PSA complexes: complex of prostate specific antigen with the protease inhibitor α1-antichymotrypsin,half-life of removal from the mouse circulation,"[2]; i.v. lateral tail vein, labelled complex injected alone",approximately 20 minutes
same,half life in mouse circulation on coinjection with excess unlabeled complex,"[2]; i.v., coinjected with a large excess of unlabeled α1-ACT·PSA complexes",several hours
same,half life of complex compared to native α1-ACT,"[2]; mouse, i.v., FIG. 3",significantly reduced
B1,organs with predominant radioactivity (tissue distribution),[3],bladder and kidney
same,half life in mouse circulation,"[2]; i.v. lateral tail vein, injected alone, estimated",several hours
